Assay results reported in article PMC11050286.

Target: human calmodulin wild-type (pIRES-DsRed-HisB-cMyc-CaM WT) (human) (UniProt P0DP23)

human SK4 R352D/R355D (from UniProt O15554 1-427) (natural protein)
TRAM-34 sensitive whole-cell K+ current density at +60 mV, HEK293T cells co-transfected with SK4 R352D/R355D and CaM WT, 0.1 uM Cai (not different from background): 54 pA/pF
